Assay results: US20210340548A1

Target: Cry2 PHR (L348F)-p65AD-NLSx2 fusion construct as released from the TetR (I194T, 1-206)-CIB1 (-NLS)-T2A-Cry2 PHR (L348F)-p65AD-NLSx2 fusion construct
Test: cell-based or functional assay

Sequence of Cry2 PHR (L348F)-p65AD-NLSx2 fusion construct as released from the TetR (I194T, 1-206)-CIB1 (-NLS)-T2A-Cry2 PHR (L348F)-p65AD-NLSx2 fusion construct (Q96524 other isoform, or with tags, fused parts or gaps L348F I194T L348F L348F I194T L348F): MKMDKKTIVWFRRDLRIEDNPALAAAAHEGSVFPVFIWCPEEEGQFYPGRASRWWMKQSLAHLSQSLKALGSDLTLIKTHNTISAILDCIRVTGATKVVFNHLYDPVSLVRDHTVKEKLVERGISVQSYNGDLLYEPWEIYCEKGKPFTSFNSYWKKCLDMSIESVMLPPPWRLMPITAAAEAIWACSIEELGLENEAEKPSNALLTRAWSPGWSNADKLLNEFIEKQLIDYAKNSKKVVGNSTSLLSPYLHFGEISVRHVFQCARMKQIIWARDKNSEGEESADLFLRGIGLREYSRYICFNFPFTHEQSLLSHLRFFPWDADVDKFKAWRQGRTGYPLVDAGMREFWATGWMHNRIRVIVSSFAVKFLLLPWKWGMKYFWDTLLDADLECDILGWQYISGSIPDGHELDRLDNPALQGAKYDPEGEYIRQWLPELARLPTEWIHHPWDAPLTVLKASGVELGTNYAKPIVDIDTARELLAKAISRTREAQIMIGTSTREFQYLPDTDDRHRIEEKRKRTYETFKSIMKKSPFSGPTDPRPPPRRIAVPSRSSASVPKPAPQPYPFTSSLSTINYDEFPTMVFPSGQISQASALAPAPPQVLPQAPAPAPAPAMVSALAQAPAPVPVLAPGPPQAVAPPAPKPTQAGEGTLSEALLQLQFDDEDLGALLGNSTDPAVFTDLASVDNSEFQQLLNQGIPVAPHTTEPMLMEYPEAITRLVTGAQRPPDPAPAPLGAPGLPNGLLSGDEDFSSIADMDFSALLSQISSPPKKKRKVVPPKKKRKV

B1: TetR (I194T, 1-206)-CIB1 (-NLS) fusion construct as released from the TetR (I194T, 1-206)-CIB1 (-NLS)-T2A-Cry2 PHR (L348F)-p65AD-NLSx2 fusion construct (protein, part only)
chain: MARLDKSKVINSALELLNEVGIEGLTTRKLAQKLGVEQPTLYWHVKNKRALLDALAIEMLDRHHTHFCPLEGESWQDFLRNNAKSFRCALLSHRDGAKVHLGTRPTEKQYETLENQLAFLCQQGFSLENALYALSAVGHFTLGCVLEDQEHQVAKEERETPTTDSMPPLLRQAIELFDHQGAEPAFLFGLELITCGLEKQLKCESGSPKKKHMEFNGAIGGDLLLNFPDMSVLERQRAHLKYLNPTFDSPLAGFFADSSMITGGEMDSYLSTAGLNLPMMYGETTVEGDSRLSISPETTLGTGNFKAAKFDTETKDCNEAAKKMTMNRDDLVEEGEEEKSKITEQNNGSTKSIKKMKHKAKKEENNFSNDSSKVTKELEKTDYI
modifications: residual T2A residues at C-terminus
  Average of the Light/Dark ratio, Dox 0 ng/mL: 19
  Average of the Light/Dark ratio, Dox 0 ng/mL, 36 h light: 2780
  Average of the Light/Dark ratio, Dox 75 ng/mL: 1.1
  Average of the Light/Dark ratio, Dox 500 ng/mL, 36 h light: 0.2
  Light/Dark, Dox 0 ng/mL: 36.2
  Light/Dark, Dox 0 ng/mL, 36 h light: 525
  Light/Dark, Dox 75 ng/mL: 0.9
  Light/Dark, Dox 500 ng/mL, 36 h light: 0.2
  Ub-ELuc luciferase, Dark, Dox 0 ng/mL: 4 relative
  Ub-ELuc luciferase, Dark, Dox 0 ng/mL, 36 h light: 15.4 relative
  Ub-ELuc luciferase, Dark, Dox 75 ng/mL: 0.1 relative
  Ub-ELuc luciferase, Dark, Dox 500 ng/mL, 36 h light: 9.9 relative
  Ub-ELuc luciferase, Light, Dox 0 ng/mL: 76.7 relative
  Ub-ELuc luciferase, Light, Dox 0 ng/mL, 36 h light: 8090 relative
  Ub-ELuc luciferase, Light, Dox 75 ng/mL: 0.1 relative
  Ub-ELuc luciferase, Light, Dox 500 ng/mL, 36 h light: 1.8 relative

B2: TetR (I194T, H100Y, 1-206)-CIB1 (-NLS) from the T2A construct (protein, part only)
chain: MARLDKSKVINSALELLNEVGIEGLTTRKLAQKLGVEQPTLYWHVKNKRALLDALAIEMLDRHHTHFCPLEGESWQDFLRNNAKSFRCALLSHRDGAKVYLGTRPTEKQYETLENQLAFLCQQGFSLENALYALSAVGHFTLGCVLEDQEHQVAKEERETPTTDSMPPLLRQAIELFDHQGAEPAFLFGLELITCGLEKQLKCESGSPKKKHMEFNGAIGGDLLLNFPDMSVLERQRAHLKYLNPTFDSPLAGFFADSSMITGGEMDSYLSTAGLNLPMMYGETTVEGDSRLSISPETTLGTGNFKAAKFDTETKDCNEAAKKMTMNRDDLVEEGEEEKSKITEQNNGSTKSIKKMKHKAKKEENNFSNDSSKVTKELEKTDYI
modifications: T2A residues at C-terminus
  Average of the Light/Dark ratio, Dox 0 ng/mL: 19
  Average of the Light/Dark ratio, Dox 75 ng/mL: 19.4
  Light/Dark, Dox 0 ng/mL: 30.6
  Light/Dark, Dox 75 ng/mL: 22.7
  Ub-ELuc luciferase, Dark, Dox 0 ng/mL: 2.6 relative
  Ub-ELuc luciferase, Dark, Dox 75 ng/mL: 3.1 relative
  Ub-ELuc luciferase, Light, Dox 0 ng/mL: 58.1 relative
  Ub-ELuc luciferase, Light, Dox 75 ng/mL: 41.4 relative

B3: rTetR (I194T, rtTA mutation, 1-206)-CIB1 (-NLS) from the T2A construct (protein, part only; not given: Leftover T2A residues, part only)
chain, part: MARLDKSKVINSALELLNEVGIEGLTTRKLAQKLGVEQPTLYWHVKNKRALLDALAIEMLDRHHTHFCPLKGESWQDFLRNNAKSFRCALLSHRNGAKVHSDTRPTEKQYETLENQLAFLCQQGFSLENALYALSAVGHFTLGCVLEDQEHQVAKEERETPTTDSMPPLLRQAIELFDHQGAEPAFLFGLELITCGLEKQLKCESGSPKKKHMEFNGAIGGDLLLNFPDMSVLERQRAHLKYLNPTFDSPLAGFFADSSMITGGEMDSYLSTAGLNLPMMYGETTVEGDSRLSISPETTLGTGNFKAAKFDTETKDCNEAAKKMTMNRDDLVEEGEEEKSKITEQNNGSTKSIKKMKHKAKKEENNFSNDSSKVTKELEKTDYI
  Average of the Light/Dark ratio, Dox 0 ng/mL: 3.2
  Average of the Light/Dark ratio, Dox 75 ng/mL: 22.5
  Light/Dark, Dox 0 ng/mL: 3.5
  Light/Dark, Dox 75 ng/mL: 3.4
  Ub-ELuc luciferase, Dark, Dox 0 ng/mL: 0.2 relative
  Ub-ELuc luciferase, Dark, Dox 75 ng/mL: 0.1 relative
  Ub-ELuc luciferase, Light, Dox 0 ng/mL: 0.5 relative
  Ub-ELuc luciferase, Light, Dox 75 ng/mL: 0.4 relative

B4: rTetR (I194T, S2 mutation, 1-206)-CIB1 (-NLS) from the T2A construct (protein, part only; not given: Leftover T2A residues, part only)
chain, part: MARLDKSKVINSALELLNGVGIEGLTTRKLAQKLGVEQPTLYWHVKNKRALLDALPIEMLDRHHTHFCPLEGESWQDFLRNNAKSFRCALLSHRDGAKVHLGTRPTEKQYETLENQLAFLCQQGFSLENALYALSAVGHFTLGCVLEEQEHQVAKEERETPTTDSMPPLLRQAIELFDRQGAEPAFLFGLELITCGLEKQLKCESGSPKKKHMEFNGAIGGDLLLNFPDMSVLERQRAHLKYLNPTFDSPLAGFFADSSMITGGEMDSYLSTAGLNLPMMYGETTVEGDSRLSISPETTLGTGNFKAAKFDTETKDCNEAAKKMTMNRDDLVEEGEEEKSKITEQNNGSTKSIKKMKHKAKKEENNFSNDSSKVTKELEKTDYI
  Average of the Light/Dark ratio, Dox 0 ng/mL: 2.2
  Average of the Light/Dark ratio, Dox 75 ng/mL: 17
  Light/Dark, Dox 0 ng/mL: 3.1
  Light/Dark, Dox 75 ng/mL: 3.1
  Ub-ELuc luciferase, Dark, Dox 0 ng/mL: 0.2 relative
  Ub-ELuc luciferase, Dark, Dox 75 ng/mL: 0.2 relative
  Ub-ELuc luciferase, Light, Dox 0 ng/mL: 0.5 relative
  Ub-ELuc luciferase, Light, Dox 75 ng/mL: 0.7 relative

B5: rTetR (I194T, M2 mutation, 1-206)-CIB1 (-NLS) from the T2A construct (protein, part only; not given: Leftover T2A residues, part only)
chain, part: MARLDKSKVINGALELLNGVGIEGLTTRKLAQKLGVEQPTLYWHVKNKRALLDALPIEMLDRHHTHFCPLEGESWQDFLRNNAKSFRCALLSHRDGAKVHLGTRPTEKQYETLENQLAFLCQQGFSLENALYALSAVGHFTLGCVLEEQEHQVAKEERETPTTDSMPPLLRQAIELFDRQGAEPAFLFGLELITCGLEKQLKCESGSPKKKHMEFNGAIGGDLLLNFPDMSVLERQRAHLKYLNPTFDSPLAGFFADSSMITGGEMDSYLSTAGLNLPMMYGETTVEGDSRLSISPETTLGTGNFKAAKFDTETKDCNEAAKKMTMNRDDLVEEGEEEKSKITEQNNGSTKSIKKMKHKAKKEENNFSNDSSKVTKELEKTDYI
  Average of the Light/Dark ratio, Dox 0 ng/mL: 1.4
  Average of the Light/Dark ratio, Dox 75 ng/mL: 31.6
  Light/Dark, Dox 0 ng/mL: 1.1
  Light/Dark, Dox 75 ng/mL: 38.4
  Ub-ELuc luciferase, Dark, Dox 0 ng/mL: 0.3 relative
  Ub-ELuc luciferase, Dark, Dox 75 ng/mL: 0.3 relative
  Ub-ELuc luciferase, Light, Dox 0 ng/mL: 0.3 relative
  Ub-ELuc luciferase, Light, Dox 75 ng/mL: 12.7 relative

B6: rTetR (I194T, V10 mutation, 1-206)-CIB1 (-NLS) from the T2A construct (protein, part only; not given: Leftover T2A residues, part only)
chain, part: MARLDKSKVINSALELLNGVGIEGLTTRKLAQKLGVEQPTLYWHVKNKRALLDALPIEMLDRHHTHSCPLEGESWQDFLRNNAKSYRCALLSHRDGAKVHLGTRPTEKQYETLENQLAFLCQQGFSLENALYALSAVGHFTLGCVLEEQEHQVAKEERETPTTDSMPPLLKQAIELFDRQGAEPAFLFGLELITCGLEKQLKCESGSPKKKHMEFNGAIGGDLLLNFPDMSVLERQRAHLKYLNPTFDSPLAGFFADSSMITGGEMDSYLSTAGLNLPMMYGETTVEGDSRLSISPETTLGTGNFKAAKFDTETKDCNEAAKKMTMNRDDLVEEGEEEKSKITEQNNGSTKSIKKMKHKAKKEENNFSNDSSKVTKELEKTDYI
  Average of the Light/Dark ratio, Dox 0 ng/mL: 1.3
  Average of the Light/Dark ratio, Dox 0 ng/mL, 36 h light: 9.6
  Average of the Light/Dark ratio, Dox 75 ng/mL: 32.8
  Average of the Light/Dark ratio, Dox 500 ng/mL, 36 h light: 959
  Light/Dark, Dox 0 ng/mL: 1.1
  Light/Dark, Dox 0 ng/mL, 36 h light: 9.2
  Light/Dark, Dox 75 ng/mL: 42.7
  Light/Dark, Dox 500 ng/mL, 36 h light: 412
  Ub-ELuc luciferase, Dark, Dox 0 ng/mL: 0.2 relative
  Ub-ELuc luciferase, Dark, Dox 0 ng/mL, 36 h light: 3.6 relative
  Ub-ELuc luciferase, Dark, Dox 75 ng/mL: 1.2 relative
  Ub-ELuc luciferase, Dark, Dox 500 ng/mL, 36 h light: 22.8 relative
  Ub-ELuc luciferase, Light, Dox 0 ng/mL: 0.2 relative
  Ub-ELuc luciferase, Light, Dox 0 ng/mL, 36 h light: 25.3 relative
  Ub-ELuc luciferase, Light, Dox 75 ng/mL: 51.7 relative
  Ub-ELuc luciferase, Light, Dox 500 ng/mL, 36 h light: 9140 relative

B7: rTetR (I194T, V16 mutation, 1-206)-CIB1 (-NLS) from the T2A construct (protein, part only; not given: Leftover T2A residues, part only)
chain, part: MARLDKSKIINSALELLNGVGIEGLTTRKLAQKLGVEQPTLYWHVKNKRALLDALPIEMLDRHHTHSCPLEGESWQDFLRNNAKSYRCALLSHRDGAKVHLGTRPTEKQYETLENQLAFLCQQGFSLENALYALSAVGHFTLGCVLEEQEHQVAKEERETPTTDSMPPLLKQAIELFDRQGAEPAFLFGLELITCGLEKQLKCESGSPKKKHMEFNGAIGGDLLLNFPDMSVLERQRAHLKYLNPTFDSPLAGFFADSSMITGGEMDSYLSTAGLNLPMMYGETTVEGDSRLSISPETTLGTGNFKAAKFDTETKDCNEAAKKMTMNRDDLVEEGEEEKSKITEQNNGSTKSIKKMKHKAKKEENNFSNDSSKVTKELEKTDYI
  Average of the Light/Dark ratio, Dox 0 ng/mL: 1.5
  Average of the Light/Dark ratio, Dox 75 ng/mL: 15.8
  Light/Dark, Dox 0 ng/mL: 1.6
  Light/Dark, Dox 75 ng/mL: 26.4
  Ub-ELuc luciferase, Dark, Dox 0 ng/mL: 0.2 relative
  Ub-ELuc luciferase, Dark, Dox 75 ng/mL: 5.9 relative
  Ub-ELuc luciferase, Light, Dox 0 ng/mL: 0.3 relative
  Ub-ELuc luciferase, Light, Dox 75 ng/mL: 76.7 relative
